For assay [1], the target named is human growth hormone secretagogue related receptor (GHSR-R) (human) (UniProt Q9HB89). As to the kind of experiment: cell-based or functional assay.
Assay [2] deals with other G-protein coupled receptors. Description: Aequorin assay, cells transfected with other G-protein coupled receptors in the same vector. Format: cell-based. The following applies: other GPCRs cloned into the same vector.
Assay [3] deals with T1, GHSR-R (Homo sapiens, UniProt Q9HB89).
T1 construct: expressed in transfected cells
T1 sequence (Q9HB89 24-426 limits assumed): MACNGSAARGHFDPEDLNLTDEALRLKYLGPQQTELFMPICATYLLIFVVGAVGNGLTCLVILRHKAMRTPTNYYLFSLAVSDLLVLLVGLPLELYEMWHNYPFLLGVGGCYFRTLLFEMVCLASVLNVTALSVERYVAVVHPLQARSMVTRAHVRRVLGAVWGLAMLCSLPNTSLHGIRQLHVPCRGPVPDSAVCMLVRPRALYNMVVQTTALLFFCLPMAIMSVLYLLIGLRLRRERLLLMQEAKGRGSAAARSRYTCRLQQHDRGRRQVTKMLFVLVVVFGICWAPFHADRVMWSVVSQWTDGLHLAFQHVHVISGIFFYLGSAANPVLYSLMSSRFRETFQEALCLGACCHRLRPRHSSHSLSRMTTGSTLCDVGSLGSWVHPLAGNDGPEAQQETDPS
Description: β-lactamase assay in CHO-NFAT-bla cells stably expressing GHSR-R. Format: cell-based. The following applies: triplicates, read-out: EC50 of NMU for GHSR-R. On the procedure: β-lactamase assays were carried out as described previously; Zlokarnik et al., 1998, Science 279:84-88. CH.3xNFAT-bla cells (Aurora Biosciences, San Diego, Calif., USA) stably expressing GHSR-R were maintained at 37° C./5% CO2 in DMEM+10% fetal bovine serum (GIBCO-BRL, Gaithersburg, Md., USA), 1 mM sodium pyruvate, 1 mM non-essential amino acid, 55 μM 2-mecaptoethanol, 250 μg/ml zeocin, 5.0 μg/ml puromycin. Cells were seeded at 7,000 cells/well in 96-well clear bottom black-walled plates two days before assay.
The day the assay was performed, growth media was removed from the cells and replaced with 0.05 mL/well of phenol red-free Opti-MEM (GIBCO-BRL, Gaithersburg, Md., USA). Neuromedin U was diluted in Opti-MEM using 5-fold serial dilutions, and added into assay plates in triplicates at 0.05 ml/well. The plates were incubated at 37° C./5% CO2 for 4 hours. […]
Fluorescence was measured at emission wave length of 460 nM and 535 nM using an excitation wave length of 405 nM in a Tecan SpectraFluor Plus fluorescence microplate reader (Tecan Austria, Saltzburg, Austria). The ratio of fluorescence between 460 nM and 535 nM was calculated and plotted using the software GraphPad Prism Version 3.0 (GraphPad Software, Inc., San Diego, Calif., USA).

Assay [4] deals with Male rats (Charles River Sprague Dawley). Description: Overnight food intake after ICV (lateral ventricle) injection in rats. Format: in vivo, rat. The conditions noted are these: 10 μg ICV, relative to aCSF vehicle, P<0.01, n=6. On the procedure: Animals and Diet: Male rats (Charles River Sprague Dawley) weighing 250-350 g were maintained in a temperature and humidity controlled facility with a 12 hour light/dark cycle (4:00 AM lights on). Rats were fed standard rodent ground chow (Purina#7012). Fresh diet was provided daily. Both food and water were supplied ad libitum throughout both the pre- and post-surgery periods.
ICV cannulation: Rats under ketamine/xylazine anesthesia, were stereotaxically implanted in the lateral ventricle with a 26G guide cannula. The guide cannula (Plastics One Roanoke,Va.) was secured with three set screws and dental cement. A dummy internal cannula was placed into the guide cannula to maintain cannula patency. Rats were individually housed in Nalgene metabolism cages and allowed to recover a minimum of seven days before injection with test compounds.
Acclimation: Beginning the day after surgery, each rat was acclimated to the handling and injection procedure, as well as, the feeding regimen. […] Food intake was measured two hours later and the following morning. […]
Confirmation of cannula placement: Once the rats were fully recovered from surgery, guide cannula placement was confirmed by evaluating the food intake induced by the injection of 5 μg of hNPY (Peninsula Laboratories, Belmont, Calif.) after a one hour satiation period. Two hour post-injection food intake was recorded for each rat. […]

Assay [5] deals with T2, human growth hormone secretagogue related receptor (GHSR-R) (human, UniProt Q9HB89 24-426).
T2 sequence: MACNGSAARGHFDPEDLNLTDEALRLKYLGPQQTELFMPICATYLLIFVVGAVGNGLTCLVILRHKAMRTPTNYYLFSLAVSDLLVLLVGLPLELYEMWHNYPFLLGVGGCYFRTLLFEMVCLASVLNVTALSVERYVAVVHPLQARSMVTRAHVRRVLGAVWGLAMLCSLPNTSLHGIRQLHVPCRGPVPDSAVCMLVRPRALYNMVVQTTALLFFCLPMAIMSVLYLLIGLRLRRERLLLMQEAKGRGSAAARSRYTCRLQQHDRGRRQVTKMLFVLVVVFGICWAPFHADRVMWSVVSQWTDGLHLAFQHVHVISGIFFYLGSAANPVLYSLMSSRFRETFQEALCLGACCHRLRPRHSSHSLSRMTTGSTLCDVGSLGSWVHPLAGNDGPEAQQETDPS
Description: cell-based or functional assay.

Assay [6] concerns the target T2, human growth hormone secretagogue …. Description: radioligand competition on membranes of HEK293 cells stably expressing human GHSR-R (summary of Example 10). On the procedure: (§1) All procedures were conducted on ice. Cell pellets were homogenized in a tissue grinder with a PTFE pestle (25 strokes). Crude cell membranes were then isolated by centrifugation of the cell lysate at 13,000×g for 30 minutes. Membrane pellets were resuspended at a protein concentration of 2.8 mg/ml in 50 mM Tris-HCl, pH 7.4, 5 mM MgCl2.
(§2) After incubation for 1 hour at room temperature, binding reactions were filtered through GC/C filters (Whatman; presoaked for 1 hour in 1% polyethylenimine) on a 48-well cell harvester (Brandel), washed 3×3 ml with ice-cold 50 mM Tris-HCl, pH 7.4 buffer with 10 mM MgCl2. Radioactivity on the filters was quantitated by gamma counting.
Background: Loss of bound radioactivity is the signal in a displacement assay; it reports binding, not function.

Assay [7] shares this target. As to the kind of experiment: radioligand competition against 0.1 nM 125I-labeled rat NMU on membranes of HEK-293/aeq17 cells stably expressing human GHSR-R, filtration. Here is the method: as §1, §2

Ends that are not written are not given here.

In assay [1], “porcine neuromedin U-8 (porcine NMU-8) (from UniProt P34964 158-165) (peptide)” gave an EC50, FLIPR intracellular Ca2+ assay, COS-7 cells transiently transfected with GHSR-R of 45 nM and an EC50, aequorin bioluminescence assay (Ca2+ mobilization), HEK293aeq/17 cells stably expressing GHSR-R of 2.1 nM.

In the case of “neuromedin U (YKVNEYQGPVAPSGGFFLFRPRN; ends and bridges not checked; UniProt P12760 144-166, looked up) [NMU, neuropeptide neuromedin U; rat peptide (Phoenix Pharmaceuticals) in the food intake study]”, in assay [2], the “response to NMU in cells expressing other G-protein coupled receptors” value is listed as “did not show any response”. Further, the EC50 – broadly, the concentration at which the effect is half-maximal – in assay [3] was about 0.075 nM. For the same molecule, the “suppression of food intake” value in assay [4] is given as 59%.

In assay [1], “neuromedin U (NMU), species and length not stated (peptide)” gave an EC50, beta-lactamase reporter assay in CHO-NFAT-bla cells of 0.075 nM and an EC50, beta-lactamase reporter assay in HEK293CRE-bla cells of 3 nM.

B1: rat neuromedin U-23 (rat NMU-23) (peptide, UniProt P12760 144-166, looked up)
peptide: YKVNEYQGPVAPSGGFFLFRPRN-NH2
notes: mature; also called unlabeled rat neuromedin U-25; Neuromedin U-25 (rat)
For B1, in assay [5], the “EC50, FLIPR intracellular Ca2+ assay, COS-7 cells transiently transfected with GHSR-R” value was found to be 55 nM and the “EC50, aequorin bioluminescence assay (Ca2+ mobilization), HEK293aeq/17 cells stably expressing GHSR-R” value turned out to be 14.1 nM. In addition, the IC50 – broadly, the concentration that gives 50% inhibition – in assay [6] turned out to be 3 nM. The IC50 in assay [7] was found to be 3.3 nM.

The record behind these values is US6599718B1, “Growth hormone secretagogue related receptors and nucleic acids” (priority 1998, dated 2003).
